Molecular target: the molecule itself
Test: SEC-MALS

B1: LOV-HK (blue light-activated histidine kinase from Brucella abortus), construct 15-489 (enzyme)
chain: MALSQATDPFRAAVEFTLMPMLITNPHLPDNPIVFANPAFLKLTGYEADEVMGRNCRFLQGHGTDPAHVRAIKSAIAAEKPIDIDIINYKKSGEAFWNRLHISPVHNANGRLQHFVSSQLDVTLELSRLVELEKERKTLSIETARSKDQLDYIVEVANIGFWTREFYSGKMTCSAECRRIYGFTPDEPVHFDTILDLVVLEDRMTVVQKAHQAVTGEPYSIEYRIVTRLGETRWLETRAKALTGENPLVLGIVQDVTERKKAEANKALVSREIAHRFKNSMAMVQSIANQTLRNTYDPEQANRLFSERLRALSQAHDMLLKENWAGATIQQICATALAPFNSTFANRIHMSGPHLLVSDRVTVALSLAFYELATNAVKYGALSNEKGVINITWAIMEDKGEKKFHMRWAESRGPEVMQPARRGFGQRLLHSVLAEELKAKCDVEFAASGLLIDVLAPITPEVFPGMGHNVPEQRIA
notes: also called pET-24a-LOVHK-15-489
  stoichiometry N: 2
